Laboratory results: PMC2033760, “Interleukin 1 modulates growth of human renal carcinoma cells in vitro” (British Journal of Cancer, 1995)

Target: T1, IL-1 receptor type I (human (endogenous in A-498), UniProt P14778 18-569)
T1 construct: In the functional row on Caki-2 cells the endogenous receptor of those cells is meant; it was not detected there directly; also called IL-1 receptor type I (80 kDa); source: endogenous, on A-498 cells
T1 sequence (looked up): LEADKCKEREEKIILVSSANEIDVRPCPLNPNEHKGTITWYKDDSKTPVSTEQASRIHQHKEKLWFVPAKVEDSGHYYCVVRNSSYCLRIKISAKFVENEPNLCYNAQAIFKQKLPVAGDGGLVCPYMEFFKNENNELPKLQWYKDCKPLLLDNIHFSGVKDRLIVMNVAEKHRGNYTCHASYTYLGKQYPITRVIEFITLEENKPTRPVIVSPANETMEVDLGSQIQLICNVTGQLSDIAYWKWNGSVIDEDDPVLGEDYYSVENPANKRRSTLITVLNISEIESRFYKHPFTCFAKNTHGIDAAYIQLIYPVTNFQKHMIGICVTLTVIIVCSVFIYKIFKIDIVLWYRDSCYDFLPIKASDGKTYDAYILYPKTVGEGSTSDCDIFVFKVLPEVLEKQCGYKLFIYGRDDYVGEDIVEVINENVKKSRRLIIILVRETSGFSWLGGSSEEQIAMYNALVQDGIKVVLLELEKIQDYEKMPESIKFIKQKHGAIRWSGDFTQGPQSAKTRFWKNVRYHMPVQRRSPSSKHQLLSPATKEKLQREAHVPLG
Experiment: radioligand binding; [125I]IL-1 alpha at increasing concentrations (direct) or at 80 pM with increasing unlabelled IL-1 alpha (competition) on subconfluent A-498 cells in 24-well plates; cells washed with binding medium pH 3.0 for 30 s beforehand; binding medium with 20 mM HEPES pH 7.0; 3 h at 4 C; Scatchard analysis, two classes of binding sites
Conditions: one partner purified

B1: [125I]IL-1 alpha (ligand, UniProt P01583 113-271, looked up)
chain: SAPFSFLSNVKYNFMRIIKYEFILNDALNQSIIRANDQYLTAAALHNLDEAVKFDMGAYKSSKDDAKITVILRISKTQLYVTAQDEDQPVLLKEMPEIPKTITGSETNLLFFWETHGTKNYFTSVAHPNLFIATKQDYWVCLAGGPPSITDFQILENQA
modifications: 125I label (radioiodinated)
notes: interleukin 1 alpha, the 17 kDa form as printed; also called radiolabelled interleukin 1 alpha; source: bought: Amersham-Buchler
With B1 as the binder, how does the “KD of the high-affinity sites” value read?
The value was 0.045 nM.

And the “KD of the low-affinity sites” value?
Its value is 1.3 nM.
